Values belong to the substance of their own block, whether it stands above or below them.
Legend:
[1] = biological target: cTnI switch peptide 147-163 (Homo sapiens) (UniProt P19429); experiment: NMR; settings: cited from earlier work
[2] = biological target: N-domain of cardiac troponin C with the L48Q mutation, cNTnC(L48Q) (UniProt P63316); experiment: NMR titration
[3] = biological target: cardiac troponin I (cTnI), rat wild type (rat) (UniProt P23693); experiment: ITC
Chain of cardiac troponin I (cTnI), rat wild type (rat) (P23693 whole entry): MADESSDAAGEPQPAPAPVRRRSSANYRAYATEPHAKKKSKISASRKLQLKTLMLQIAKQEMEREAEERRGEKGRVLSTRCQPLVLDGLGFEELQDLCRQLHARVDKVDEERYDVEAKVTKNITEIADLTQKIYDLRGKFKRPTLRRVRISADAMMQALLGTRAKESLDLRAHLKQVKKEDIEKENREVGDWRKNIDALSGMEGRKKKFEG

Substance: cNTnC N-terminal domain (from UniProt P63316)
Kd [1]: 150 µM

Kd [2]: 61 µM
Substance: cTnI peptide corresponding to residues 147-163, cTnI_(147-163) switch peptide

Kd [3]: 0.132 µM
dH [3]: -5.28 kcal/mol
Substance: cardiac troponin C L48Q variant, cTnC(L48Q) (from UniProt Q4PP99 1-161) (natural protein)

Reference: publication PMC3437384
